From US20120121587A1 (Chugai, published 2012)
Residue numbers refer to the chain shown, from its start. Values belong to the binder of their own block, whether it stands above or below them.

Molecular target: T1, Human recombinant AXL-FND1 (GST-FND1), from pET-41b(+) (human, UniProt P30530 225-331)
T1 construct: Expressed in E. coli, purified on Glutathione Sepharose; analyte in all Biacore measurements; GST put first by the usual layout of pET-41; not shown: GST-tag of vector pET-41b(+) (Novagen)
T1 sequence (looked up): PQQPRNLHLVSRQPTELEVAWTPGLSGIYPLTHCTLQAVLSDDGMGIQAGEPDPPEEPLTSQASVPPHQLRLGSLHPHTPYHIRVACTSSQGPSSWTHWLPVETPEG
Assay: SPR (Biacore T100): antibody captured on Protein A, GST-FND1 as analyte
Protocol: Kinetic analyses of antigen-antibody reactions of humanized AXL antibodies were carried out using Biacore T100 (BIACORE). rec-Protein A (Zymed) (hereinafter, Protein A) was immobilized onto a sensor chip, various antibodies were bound to it, then an antigen as the analyte was flushed to measure the antibody-antigen interaction. Human recombinant AXL-FND1 (prepared in 2-2; hereinafter referred to as GST-FND1) prepared at various concentrations was used as the antigen. From the sensorgrams obtained through the measurements, kinetic parameters, namely binding rate constant kₐ (1/Ms) and dissociation rate constant kd (1/s), were calculated, and Kd (M) was calculated based on these values. Biacore T100 Evaluation Software (BIACORE) was used to calculate each of the parameters.
The sensor chips were produced by immobilizing approximately 3000 RU of Protein A onto CM5 (BIACORE) by amine coupling. Using the produced sensor chip, kinetic analyses were carried out on the interaction between the Protein A-bound antibodies and GST-FND1. HBS-EP+ was used as the running buffer, and the flow rate was set to 30 μL/min. Each antibody was prepared at 1 μg/mL using the running buffer, and was subjected to binding with Protein A for two minutes. GST-FND1 as the analyte was prepared at 0.5 and 2.0 μg/mL using HBS-EP+. Measurements were carried out by first binding the various humanized AXL antibodies, chimeric AXL antibodies, or mouse AXL antibodies of interest to Protein A, then applying an analyte solution to them for a two-minute interaction, and then switching to HBS-EP+ (BIACORE) for a two-minute measurement of the dissociation phase. After completion of measurement of the dissociation phase, 30 μL of 10 mM glycine-HCl (pH 2.0) was used for washing to regenerate the sensor chip. Such binding, dissociation, and regeneration were defined as one cycle of analysis. All experiments were performed at 25° C.
Affinity evaluation of each of the variants by Biacore was carried out by the method of Example 2.

- Kd: 2.49 nM
B1: H9/L1 (antibody, human IgG1, kappa)
heavy: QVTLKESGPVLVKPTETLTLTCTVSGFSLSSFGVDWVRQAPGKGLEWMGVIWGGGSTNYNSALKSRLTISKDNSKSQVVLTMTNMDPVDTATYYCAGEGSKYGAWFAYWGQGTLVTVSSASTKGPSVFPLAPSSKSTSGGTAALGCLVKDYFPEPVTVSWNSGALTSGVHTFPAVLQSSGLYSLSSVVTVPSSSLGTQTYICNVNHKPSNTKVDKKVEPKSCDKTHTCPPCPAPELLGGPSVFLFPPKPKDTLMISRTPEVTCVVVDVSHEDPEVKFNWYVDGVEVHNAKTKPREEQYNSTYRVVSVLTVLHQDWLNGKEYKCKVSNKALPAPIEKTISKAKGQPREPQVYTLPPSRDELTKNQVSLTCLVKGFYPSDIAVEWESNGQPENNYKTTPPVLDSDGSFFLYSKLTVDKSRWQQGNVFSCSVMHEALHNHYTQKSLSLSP
light: DVVMTQSPLSLPVTLGQPASISCQSSQNIVHTNGNTYLEWYQQKPGKAPELLIYKVSNRFSGVPDRFSGSGSGTDFTLKISRVEAEDVGVYYCFQGSHIPFTFGQGTKLEIKRTVAAPSVFIFPPSDEQLKSGTASVVCLLNNFYPREAKVQWKVDNALQSGNSQESVTEQDSKDSTYSLSSTLTLSKADYEKHKVYACEVTHQGLSSPVTKSFNRGEC

- Kd: 2.53 nM
B2: H9/L5 (antibody, human IgG1, kappa, V domains shown)
VH: QVTLKESGPVLVKPTETLTLTCTVSGFSLSSFGVDWVRQAPGKGLEWMGVIWGGGSTNYNSALKSRLTISKDNSKSQVVLTMTNMDPVDTATYYCAGEGSKYGAWFAYWGQGTLVTVSS
VL: DVVMTQSPLSLPVTLGQPASISCRSSQNIVHTNGNTYLEWYQQKPGQAPELLIYKVSNRFSGVPDRFSGSGSGTDFTLKISRVEAEDVGVYYCFQGSHIPFTFGQGTKLEIKR

- Kd: 3.21 nM
B3: H20/L0 (antibody, human IgG1, kappa, V domains shown)
VH: B2 VH with A40P, K43E, M48I
VL: B2 VL with Q47K

- Kd: 2.35 nM
B4: H21/L0 (antibody, human IgG1, kappa, V domains shown)
VH: B2 VH with S61E
VL: B2 VL with Q47K

- Kd: 2.56 nM
B5: H24/L0 (antibody, human IgG1, kappa, V domains shown)
VH: B2 VH with S65D
VL: B2 VL with Q47K

- Kd: 2.92 nM
B6: H9/L10 (antibody, human IgG1, kappa)
heavy: not shown
light: B1 light with Q24R, L109V, K112E

- Kd: 2.5 nM
B7: H26/L0 (antibody, human IgG1, kappa)
heavy: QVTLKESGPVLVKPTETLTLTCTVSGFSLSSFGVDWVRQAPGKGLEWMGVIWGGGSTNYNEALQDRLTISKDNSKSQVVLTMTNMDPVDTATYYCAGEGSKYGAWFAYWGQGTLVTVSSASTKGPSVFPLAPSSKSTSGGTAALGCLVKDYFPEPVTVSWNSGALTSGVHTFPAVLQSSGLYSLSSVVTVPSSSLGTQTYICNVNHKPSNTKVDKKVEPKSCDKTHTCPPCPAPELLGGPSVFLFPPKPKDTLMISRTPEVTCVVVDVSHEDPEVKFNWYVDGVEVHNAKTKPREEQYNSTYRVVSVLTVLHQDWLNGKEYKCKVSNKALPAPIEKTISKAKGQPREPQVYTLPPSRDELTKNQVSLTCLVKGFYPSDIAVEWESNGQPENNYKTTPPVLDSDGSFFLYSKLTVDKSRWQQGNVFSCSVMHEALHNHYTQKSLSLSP
light: B1 light with Q24R

- Kd: 2.4 nM
B8: H9/L11 (antibody, human IgG1, kappa)
heavy: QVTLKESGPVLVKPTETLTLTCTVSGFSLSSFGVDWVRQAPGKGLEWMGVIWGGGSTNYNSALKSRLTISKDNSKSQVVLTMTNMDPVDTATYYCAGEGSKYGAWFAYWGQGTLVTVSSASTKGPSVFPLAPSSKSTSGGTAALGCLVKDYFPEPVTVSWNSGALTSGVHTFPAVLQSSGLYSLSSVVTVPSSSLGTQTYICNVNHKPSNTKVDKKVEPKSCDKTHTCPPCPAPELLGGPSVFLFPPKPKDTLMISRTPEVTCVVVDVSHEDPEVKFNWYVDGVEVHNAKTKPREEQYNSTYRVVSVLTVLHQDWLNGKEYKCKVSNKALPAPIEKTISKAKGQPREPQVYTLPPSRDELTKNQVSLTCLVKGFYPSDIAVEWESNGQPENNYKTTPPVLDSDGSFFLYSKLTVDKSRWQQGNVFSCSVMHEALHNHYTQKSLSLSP
light: B1 light with L109V, K112E

- Kd: 2.97 nM
B9: H9/L3 (antibody, human IgG1, kappa, V domains shown)
VH: B2 VH
VL: B2 VL with R24Q, Q27E, Q47K

- Kd: 2.69 nM
B10: H9/L37 (antibody, human IgG1, kappa)
heavy: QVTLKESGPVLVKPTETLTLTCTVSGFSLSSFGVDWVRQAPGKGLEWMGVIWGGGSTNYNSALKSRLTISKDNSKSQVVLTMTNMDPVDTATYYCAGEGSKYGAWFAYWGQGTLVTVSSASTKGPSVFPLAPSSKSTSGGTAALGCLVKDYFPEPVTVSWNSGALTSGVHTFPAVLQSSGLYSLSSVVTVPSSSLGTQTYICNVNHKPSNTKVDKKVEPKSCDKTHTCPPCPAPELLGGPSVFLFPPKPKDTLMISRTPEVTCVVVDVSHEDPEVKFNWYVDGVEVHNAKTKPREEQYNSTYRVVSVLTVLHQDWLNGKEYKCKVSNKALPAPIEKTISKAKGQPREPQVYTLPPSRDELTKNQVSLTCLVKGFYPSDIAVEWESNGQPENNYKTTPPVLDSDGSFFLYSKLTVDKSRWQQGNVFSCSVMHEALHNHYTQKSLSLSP
light: B1 light with Q17R, Q24R, Q27R, E50K, Q105R

- Kd: 2.37 nM
B11: H9/L35 (antibody, human IgG1, kappa)
heavy: not shown
light: B1 light with Q24R, Q27R, E50K, Q105R

- Kd: 3.46 nM
B12: H17/L0 (antibody, human IgG1, kappa, V domains shown)
VH: B2 VH with S31D
VL: B2 VL with Q47K

- Kd: 3.14 nM
B13: H22/L0 (antibody, human IgG1, kappa, V domains shown)
VH: B2 VH with A62E
VL: B2 VL with Q47K

- Kd: 3.49 nM
B14: H9/L29 (antibody, human IgG1, kappa)
heavy: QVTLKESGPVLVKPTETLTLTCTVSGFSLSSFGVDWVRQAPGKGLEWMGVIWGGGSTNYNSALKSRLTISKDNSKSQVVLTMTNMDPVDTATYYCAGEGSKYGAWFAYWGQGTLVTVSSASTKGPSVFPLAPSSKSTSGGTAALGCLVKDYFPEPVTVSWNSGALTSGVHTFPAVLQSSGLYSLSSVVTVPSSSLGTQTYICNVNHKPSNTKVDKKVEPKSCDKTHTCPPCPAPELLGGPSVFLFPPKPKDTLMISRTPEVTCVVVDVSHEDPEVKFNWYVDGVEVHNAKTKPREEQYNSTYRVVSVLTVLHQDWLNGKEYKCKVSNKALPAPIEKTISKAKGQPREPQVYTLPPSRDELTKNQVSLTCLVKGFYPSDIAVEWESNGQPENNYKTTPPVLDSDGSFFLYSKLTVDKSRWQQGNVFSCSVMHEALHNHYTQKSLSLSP
light: B1 light with Q24R, Q105R

- Kd: 2.55 nM
B15: H9/L12 (antibody, human IgG1, kappa, V domains shown)
VH: B2 VH
VL: B2 VL with R24Q, Q47E, L109V, K112E

- Kd: 2.64 nM
B16: H9/L4 (antibody, human IgG1, kappa, V domains shown)
VH: B2 VH
VL: B2 VL with Q47E

- Kd: 3.54 nM
B17: H9/L25 (antibody, human IgG1, kappa)
heavy: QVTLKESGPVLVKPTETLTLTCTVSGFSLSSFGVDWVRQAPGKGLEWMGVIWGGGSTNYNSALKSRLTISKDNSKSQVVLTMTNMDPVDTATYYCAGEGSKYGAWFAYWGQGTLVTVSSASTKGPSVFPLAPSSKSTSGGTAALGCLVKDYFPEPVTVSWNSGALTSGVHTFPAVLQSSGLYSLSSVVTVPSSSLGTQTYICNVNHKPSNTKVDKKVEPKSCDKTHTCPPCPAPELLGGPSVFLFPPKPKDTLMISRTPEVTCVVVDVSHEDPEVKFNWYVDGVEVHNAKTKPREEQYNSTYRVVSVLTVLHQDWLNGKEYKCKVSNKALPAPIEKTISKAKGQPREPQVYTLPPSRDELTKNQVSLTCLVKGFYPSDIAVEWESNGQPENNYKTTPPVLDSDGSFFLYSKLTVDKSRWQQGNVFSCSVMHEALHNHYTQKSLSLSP
light: B1 light with Q17R, Q24R

- Kd: 2.8 nM
B18: H9/L34 (antibody, human IgG1, kappa)
heavy: not shown
light: B1 light with Q17R, Q24R, Q27R, E50K

- Kd: 2.38 nM
B19: H26/L10 (antibody, human IgG1, kappa)
heavy: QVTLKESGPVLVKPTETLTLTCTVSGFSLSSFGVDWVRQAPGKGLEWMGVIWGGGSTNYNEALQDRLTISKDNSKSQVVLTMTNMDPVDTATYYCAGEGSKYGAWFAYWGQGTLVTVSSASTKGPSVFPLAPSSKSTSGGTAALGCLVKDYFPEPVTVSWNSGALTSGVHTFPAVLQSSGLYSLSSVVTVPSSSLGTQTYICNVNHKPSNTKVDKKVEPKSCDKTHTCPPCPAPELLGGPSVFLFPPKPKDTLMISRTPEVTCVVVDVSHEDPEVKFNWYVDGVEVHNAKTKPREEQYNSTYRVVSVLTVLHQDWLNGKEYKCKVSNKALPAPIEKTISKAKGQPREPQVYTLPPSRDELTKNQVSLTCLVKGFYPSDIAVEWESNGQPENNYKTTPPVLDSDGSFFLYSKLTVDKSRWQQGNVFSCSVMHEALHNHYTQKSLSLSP
light: B1 light with Q24R, L109V, K112E

- Kd: 2.39 nM
B20: H23/L0 (antibody, human IgG1, kappa, V domains shown)
VH: B2 VH with K64Q
VL: B2 VL with Q47K

- Kd: 2.94 nM
B21: H28/L0 (antibody, human IgG1, kappa, V domains shown)
VH: B2 VH with S61E, A62E, K64Q, S65D
VL: B2 VL with Q47K

- Kd: 2.46 nM
B22: H9/L31 (antibody, human IgG1, kappa)
heavy: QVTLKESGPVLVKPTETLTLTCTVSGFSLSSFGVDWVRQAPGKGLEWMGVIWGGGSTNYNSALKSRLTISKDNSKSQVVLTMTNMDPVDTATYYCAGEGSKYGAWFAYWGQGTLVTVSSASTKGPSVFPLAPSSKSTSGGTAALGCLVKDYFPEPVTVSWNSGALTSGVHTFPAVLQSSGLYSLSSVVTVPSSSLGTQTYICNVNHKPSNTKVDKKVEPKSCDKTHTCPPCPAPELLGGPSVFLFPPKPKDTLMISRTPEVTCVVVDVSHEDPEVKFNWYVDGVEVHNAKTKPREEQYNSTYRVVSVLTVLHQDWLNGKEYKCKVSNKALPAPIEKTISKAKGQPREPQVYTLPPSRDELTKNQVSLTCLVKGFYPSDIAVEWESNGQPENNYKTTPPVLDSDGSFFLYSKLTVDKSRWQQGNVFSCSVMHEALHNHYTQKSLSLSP
light: B1 light with Q24R, Q27R, E50K

- Kd: 3.07 nM
B23: H9/L27 (antibody, human IgG1, kappa, V domains shown)
VH: B2 VH
VL: B2 VL with Q27R, Q47K

- Kd: 2.63 nM
B24: H19/L0 (antibody, human IgG1, kappa, V domains shown)
VH: B2 VH with K43Q
VL: B2 VL with Q47K

- Kd: 2.5 nM
B25: H26/L13 (antibody, human IgG1, kappa)
heavy: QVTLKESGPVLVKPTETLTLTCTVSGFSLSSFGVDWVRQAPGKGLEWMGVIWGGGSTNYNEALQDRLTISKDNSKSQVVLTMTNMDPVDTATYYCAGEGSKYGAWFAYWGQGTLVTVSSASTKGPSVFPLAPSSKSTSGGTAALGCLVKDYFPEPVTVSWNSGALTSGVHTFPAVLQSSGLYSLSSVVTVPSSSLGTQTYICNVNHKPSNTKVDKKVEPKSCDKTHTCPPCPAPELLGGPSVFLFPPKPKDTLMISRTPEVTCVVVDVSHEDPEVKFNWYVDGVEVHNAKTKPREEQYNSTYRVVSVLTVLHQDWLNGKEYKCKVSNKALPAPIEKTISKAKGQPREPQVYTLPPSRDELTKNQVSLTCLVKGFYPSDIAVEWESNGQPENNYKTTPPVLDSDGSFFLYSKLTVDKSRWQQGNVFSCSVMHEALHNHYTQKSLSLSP
light: B1 light with K47Q, L109V, K112E

- Kd: 3.03 nM
B26: H27/L0 (antibody, human IgG1, kappa, V domains shown)
VH: B2 VH with A62E, K64Q, S65D
VL: B2 VL with Q47K

- Kd: 2.71 nM
B27: H26/L11 (antibody, human IgG1, kappa)
heavy: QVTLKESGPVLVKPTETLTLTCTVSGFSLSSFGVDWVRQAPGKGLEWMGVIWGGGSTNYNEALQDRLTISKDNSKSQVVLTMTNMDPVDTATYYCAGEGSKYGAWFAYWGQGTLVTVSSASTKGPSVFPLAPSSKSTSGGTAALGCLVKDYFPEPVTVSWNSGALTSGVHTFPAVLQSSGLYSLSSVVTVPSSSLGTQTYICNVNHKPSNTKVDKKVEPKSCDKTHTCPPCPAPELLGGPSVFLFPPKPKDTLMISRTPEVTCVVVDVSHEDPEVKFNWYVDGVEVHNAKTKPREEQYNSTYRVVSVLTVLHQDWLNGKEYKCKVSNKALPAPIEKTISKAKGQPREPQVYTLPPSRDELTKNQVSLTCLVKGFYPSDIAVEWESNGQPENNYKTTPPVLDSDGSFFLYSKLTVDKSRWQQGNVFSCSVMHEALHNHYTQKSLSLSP
light: B1 light with L109V, K112E

- Kd: 4.31 nM
B28: H18/L0 (antibody, human IgG1, kappa, V domains shown)
VH: B2 VH with S31E
VL: B2 VL with Q47K

- Kd: 2.79 nM
B29: H26/L12 (antibody, human IgG1, kappa)
heavy: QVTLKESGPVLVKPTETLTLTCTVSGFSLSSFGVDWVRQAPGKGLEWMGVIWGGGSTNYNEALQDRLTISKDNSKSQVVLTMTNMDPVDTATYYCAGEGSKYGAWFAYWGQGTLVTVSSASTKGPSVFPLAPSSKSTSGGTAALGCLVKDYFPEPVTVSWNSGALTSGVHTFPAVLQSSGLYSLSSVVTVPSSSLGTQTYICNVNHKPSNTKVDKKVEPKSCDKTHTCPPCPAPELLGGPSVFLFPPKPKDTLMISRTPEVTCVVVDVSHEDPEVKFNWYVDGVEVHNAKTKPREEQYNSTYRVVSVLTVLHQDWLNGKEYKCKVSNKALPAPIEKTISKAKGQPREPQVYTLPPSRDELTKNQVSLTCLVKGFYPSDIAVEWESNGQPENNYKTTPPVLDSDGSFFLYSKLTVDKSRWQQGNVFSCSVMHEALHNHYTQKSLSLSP
light: B1 light with K47E, L109V, K112E

- Kd: 2.5 nM
B30: H25/L0 (antibody, human IgG1, kappa, V domains shown)
VH: B2 VH with K64Q, S65D
VL: B2 VL with Q47K

- Kd: 2.45 nM
B31: H9/L13 (antibody, human IgG1, kappa, V domains shown)
VH: B2 VH
VL: B2 VL with R24Q, L109V, K112E

- Kd: 3.06 nM
B32: H9/L28 (antibody, human IgG1, kappa, V domains shown)
VH: B2 VH
VL: B2 VL with Q47K, E50K
